Results on 1 molecule are retold here after patent US20120149645A1, “COMPOSITIONS AND MODULATION OF MYOCYTE ENHANCER FACTOR 2 (MEF2)” (EMORY UNIVERSITY, priority 2010, published 2012).

The subject of one test is MEF2D binding to ND6. Kind of test: ChIP assay of MEF2D binding to the ND6 MEF2 site in purified mitochondria. The format is cell-based, mouse. Particulars: construct over-expressed in SN4741 cells. An excerpt: (§1) (A) Mitochondria-targeting MEF2D (Mt2D) and mitochondria-targeting dominant-negative MEF2D (Mt2Ddn), which lacks the transactivation domain (TAD). […] Control indicates the control vector group. (C) Effects of Mt2D or Mt2Ddn on ND6 expression in SN4741 cells. Over-expression of Mt2Ddn in SN4741 cells reduced ND6 but not PPAR-γ coactivator 1 (PGC1) expression by western blotting (n=4, **p<0.01). Control indicates the control vector group. (D) Effects of over-expression of Mt2D or Mt2Ddn on mRNA levels of mitochondria encoded genes. […] Control indicates the control vector group. (E) Effects of Mt2D or Mt2Ddn on mtDNA L-strand transcription initiation in vitro (n=3; **P<0.01). A human mtDNA fragment containing mitochondrial L-strand promoter (LSP) and ND6 gene was used in the in vitro transcription assay. […] (F) Effects of Mt2D or Mt2Ddn on mtDNA de novo transcription in vivo (n=3; **P<0.01). Control (−) is without primers. Control (+) indicates the control vector group.
(A) Reduced binding of MEF2D to ND6 after neurotoxin treatment. SN4741 cells were treated with MPP+ (25 μM) or rotenone (Rot, 100 nM) for 12 hours. […] Control indicates untreated. […] Control indicates untreated. (C) Immunocytochemical analysis of mitochondrial MEF2D after MPP+ and rotenone treatment. SN4741 cells treated as described in (A) were stained (scale bar, 10 μm). […] Experiments were repeated four times. Control indicates untreated. […] SN4741 cells were treated with MPP+ after infection with the control, Mt2Ddn or Mt2DVP16 or MtND6 lentiviruses for 24 hours (upper graph: different doses of MPP+ for 24 hours; lower graph: 5 μM of MPP+ for different times). Cell viability was measured by WST-1 assay (n=4; *p<0.05; **P<0.01). Control indicates the control vector group.
Andres et al., J Biol Chem, 1995, 270:23246-23249. Moreover, this putative MEF2 binding site is conserved among several species. To test whether MEF2D binds to this putative MEF2 site, electronic mobility shift assay (EMSA) was performed. N-terminal MEF2D formed a complex with the labeled probe containing the ND6 MEF2 site. […] To corroborate this finding, a chromatin immunoprecipitation (ChIP) assay was carried out using highly purified mitochondria. […] ND6 but not ND2 based primers could amplify the bound sequence (FIG. 3C). Sequence analysis of the DNA bound by MEF2D after amplification confirmed the presence of the ND6 MEF2 site (FIG. 3D).

The subject of another test is ND6 mRNA. Description: Real-time PCR of mitochondria-encoded mRNA levels in SN4741 cells. The format is cell-based, mouse. The following applies: construct over-expressed in SN4741 cells.
Excerpt: as §1
A general note: In qPCR the cycle at which signal appears reflects the starting amount.

The next test relates to mitochondrial complex I. Description: Mitochondrial complex protein level and activity (BN-PAGE, in-gel staining, quantitative assays). The following applies: over-expression in SN4741 cells. The format is cell-based, mouse. From the text:
(§2) (A) Requirement of mitochondrial MEF2D for complex I activity. […] Control indicates the control vector group. (B) Over-expression of ND6 rescued complex I activity reduced by Mt2Ddn. Control indicates the control vector group. (C) Measurement of various complex activities. […] Control indicates the control vector group. (D) Effects of over-expression of Mt2D or Mt2Ddn on mitochondrial function. Mt2Ddn reduced cellular ATP level and elevated H2O2 production in SN4741 cells (n=4; *p<0.05; **P<0.01). Control indicates the control vector group.
(§3) Mitochondrial complex I activity was evaluated initially by blue native-polyacrylamide gel electrophoresis (BN-PAGE) and in-gel activity staining. This assay measures total complex I activity. Rotenone sensitive complex I activity and activities of other mitochondrial complexes were further measured by methods described by Antoni et al., J Biol Chem, 1998, 273:14210-14217. Briefly, parallel assays were performed to measure complex I activity at 340 nm using 2,3-dimethoxy-5-methyl-6-n-decyl-1,4-benzoquinone (DB) (50 μM) as acceptor and NADH (0.8 mM) as donor, in 50 mM Tris (pH 8.0) buffer supplemented with 5 mg/ml BSA either without or with the addition of 4 μM rotenone, which gave total and rotenone insensitive complex I activities, respectively. The difference in value between the two provided a quantified measure of the rotenone-sensitive activity. Mitochondrial membrane potential was detected using a kit (cat. no. 280002) from Stratagene following the procedures provided by the manufacturer. The fluorescent dye JC-1 (5,5′,6,6′-tetrachloro-1,1′,3,3′-tetraethylbenzimidazolyl carbocyanine iodide) stains mitochondria red in a membrane potential dependent manner. Briefly, cells were seeded in 96-well plates at 4×10^4 cells/well with 100 μl culture medium and incubated at 33° C. with 5% CO2. After treatment, 10 μl/well of premixed JC-1 staining solution was added, and the cells were incubated for an additional 30 min under the same conditions. After thorough washes, 100 μl assay buffer was added to each well. Fluorescence signal was detected with excitation and emission at 520 nm and 590 nm, respectively, on a multi-well plate reader (Bio-Tek). Cellular ATP and H202 were measured by Bioluminescent Somatic Cell ATP Assay Kit (Sigma) and Hydrogen Peroxide Assay Kit (Cayman), respectively.

In a further test the test system is SN4741 cells. Kind of test: Mitochondrial functional assays (ATP, H2O2, membrane potential). The format is cell-based, mouse. The following applies: over-expression in SN4741 cells.
Excerpt: as §2, §3

In another test the test system is nuclear MEF2. Description: MEF2 luciferase reporter assay. The format is cell-based. The following applies: co-transfected with MEF2 luciferase reporter. From the text:
Control indicates the group co-tranfected with control vector.
MEF2 luciferase reporter assay was done as described Wang et al., J Biol Chem, 2005, 280:16705-16713. Briefly, cells were transiently transfected with various constructs with MEF2 luciferase reporter plasmid (WT, reporter with wild type MEF2 DNA binding sites; mt, reporter with the MEF2 DNA binding sites mutated) using Lipofectimane 2000 (Invitrogen) following procedures provided by the manufacturer. A β-galactosidase expression plasmid was used to determine the efficiency in each transfection. The total amount of DNA for each transfection was kept constant by using control vectors. Cell lysates were analyzed for luciferase and β-galactosidase activity according to the manufacturer's instructions (Roche, cat. no. 11669893001).
(Reporter assays use an easily measured gene product as a stand-in for the process of interest.)

The next test has as its system TH+ neurons in SNpc. Kind of test: MPTP mouse model of PD, TH immunohistochemistry in SNpc. Particulars: lentivirus injected into SNpc of mouse brain, then MPTP.
Setting [1] is: non-denature gel electrophoresis.

Method for TH+ neurons in SNpc: (B) Role of mitochondrial MEF2D-ND6 pathway in maintaining TH+ neurons in SNpc in a MPTP mouse model of PD. For each group, three mice received stereotactical injection of control vector (GFP) or Mt2Ddn lentivirus in SN. Two weeks later, mice were exposed to MPTP. After treatment for seven days, the survival of lentivirus-transduced TH+ neurons in SN was determined by immunohistochemistry (left panel). Quantitative analysis of nine mice from three independent experiments was shown at the bottom panel (scale bar, 30 μm; **P<0.01).

B1: Mt2Ddn: Mitochondria-targeting dominant-negative MEF2D: mouse MEF2D 1-131aa with mitochondria-targeting signal, lacks the transactivation domain (protein, UniProt Q63943 1-131, looked up, fragment)
chain: MGRKKIQIQRITDERNRQVTFTKRKFGLMKKAYELSVLCDCEIALIIFNHSNKLFQYASTDMDKVLLKYTEYNEPHESRTNADIIETLRKKGFNGCDSPEPDGEDSLEQSPLLEDKYRRASEELDGLFRRY
modifications: mitochondria-targeting signal added
Turning to B1, in the test with MEF2D binding to ND6, the “binding of full length MEF2D to the ND6 MEF2 site” value is reported as “modulated”. Also, in the test on ND6 mRNA, the “ND6 mRNA level” value is “clearly reduced” and the “mRNA levels of other mitochondria-encoded proteins” value is “little effect”. Further, in the test with mitochondrial complex I, the “mitochondrial complex I activity” value is “significantly reduced”. In the test with mitochondrial complex I (setting [1]), the “protein level of complex II-V” value is “no effect” and the “protein level of mitochondrial complex I” value is listed as “markedly reduced”. In addition, in the test on SN4741 cells, the “cellular ATP level” value was “clear reduction” and the “hydrogen peroxide production by mitochondria” value is listed as “significantly increased”. Besides, in the test with SN4741 cells (JC-1), the mitochondrial membrane potential entry is reported as “did not significantly alter”. Besides, in the test with nuclear MEF2, the “nuclear MEF2 activity (MEF2 reporter)” value was “did not affect”. Further, the “loss of TH signal in DA neurons in vivo” value in the test on TH+ neurons in SNpc is given as “significantly accelerates”.
